Source: patent US20260201045A1

Molecular target: full length human CNTFR (hCNTFR, amino acids 1-372, UniProtKB/Swiss-Prot Accession #P26992) (human) (UniProt P26992)
Test: cell-based or functional assay

Chain of full length human CNTFR (P26992 23-342 limits assumed, one chain of several): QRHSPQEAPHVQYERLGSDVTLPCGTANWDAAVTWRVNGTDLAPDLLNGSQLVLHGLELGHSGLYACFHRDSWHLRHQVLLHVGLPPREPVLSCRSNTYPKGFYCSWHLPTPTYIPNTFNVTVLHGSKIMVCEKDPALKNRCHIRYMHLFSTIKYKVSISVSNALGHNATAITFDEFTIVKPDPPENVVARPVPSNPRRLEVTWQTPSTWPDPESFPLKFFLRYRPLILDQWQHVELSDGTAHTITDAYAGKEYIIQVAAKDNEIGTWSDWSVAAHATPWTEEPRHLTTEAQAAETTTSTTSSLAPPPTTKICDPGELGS

Ligand EC50 [M], activation of IMR-32/STAT3-luc cells (luciferase) [M]	Substance
2.26e-12	human Ciliary Neurotrophic Factor (hCNTF, R&D Systems, 257-NT) (from UniProt P26441 2-200) (ligand)
9.63e-11	human Cytokine-like Factor 1/human Cardiotrophin-like cytokine complex (hCLF-1/CLC, R&D Systems 1151-CL) (from UniProt O75462 38-422; Q9UBD9 28-225) (ligand)
